Consider 11 molecules from patent US20240425587A1 (Alector, published 2024).

Where a chain is given by its changes, count along the chain named.

Sequences and labels used below:
B1: E21 (antibody, V domains shown)
VH: QVQLVQSGAEVKKPGSSVKVSCKASGYTFSNYDINWVRQAPGQGLEWMGGIIPIFGTANYALKFQGRVTITADESTSTAYMELSSLRSEDTAVYYCARGGPWLYFDYWGQGTLVTVSS
VL: DIQMTQSPSSLSASVGDRVTITCRASQSISTYLNWYQQKPGKAPKLLIYAASTLQSGVPSRFSGSGSGTDFTLTISSLQPEDFATYYCQQSYSSPLTFGQGTKLEIK
notes: phage campaign
B2: A9 (antibody, V domains shown)
VH: QVQLVQSGAEVKKPGSSVKVSCKASGYTFTDYAISWVRQAPGQGLEWMGGITPVFGTPSYAQKFQGRVTITADESTSTAYMELSSLRSEDTAVYYCARGWELRRDPFDYWGQGTLVTVSS
VL: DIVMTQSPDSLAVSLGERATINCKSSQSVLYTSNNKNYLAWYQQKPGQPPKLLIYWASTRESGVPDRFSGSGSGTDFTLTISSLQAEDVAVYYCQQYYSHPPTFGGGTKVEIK
notes: phage campaign
B3: A10 (antibody, V domains shown)
VH: QVQLVQSGAEVKKPGASVKVSCKASGYTFTDYYIHWVRQAPGQGLEWMGWMNPNSGNTGYAQKFQGRVTMTRDTSTSTVYMELSSLRSEDTAVYYCAREGSSGWYVDYWGQGTLVTVSS
VL: DIQMTQSPSSLSASVGDRVTITCQASQDISQFLNWYQQKPGKAPKLLIYDAYSLQSGVPSRFSGSGSGTDFTLTISSLQPEDFATYYCQQANSFPLTFGQGTKVEIK
notes: phage campaign
B4: A7 (antibody, V domains shown)
VH: QVQLVQSGAEVKKPGSSVKVSCKASGYTFTSYDINWVRQAPGQGLEWMGGIIPIFGTANYAQKFQGRVTITADESTGTAYMELSSLRSEDTAVYYCAIADGAGWFDPWGQGTLVTVSS
VL: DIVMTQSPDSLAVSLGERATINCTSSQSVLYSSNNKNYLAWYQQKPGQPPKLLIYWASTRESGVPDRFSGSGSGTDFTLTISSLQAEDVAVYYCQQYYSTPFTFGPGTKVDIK
notes: phage campaign
B5: A16 (antibody, human IgG1, kappa, L234A L235A, V domains shown)
VH: B4 VH with T28N, T30L, S31N, I34V, G77S, I98T, A99G, D100V
VL: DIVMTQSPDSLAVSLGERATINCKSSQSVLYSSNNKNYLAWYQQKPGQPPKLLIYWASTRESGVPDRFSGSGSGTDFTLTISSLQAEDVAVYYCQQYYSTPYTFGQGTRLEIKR
B6: D1 (antibody, V domains shown)
VH: QVQLQQSGVELARPGASVKLSCKASGYNFTSYGINWVKQRTGQGLEWIGKSYPTSGNNYYNEKFKGKATVTADKSSSTAYMELRSLTSEDSAVYFCGVWYGSLFAHWGQGTLVTVTA
VL: DIVMTQSQKFMSTSVGDRVRVTCKASQNVGFNVAWYQQKPGQSPKVLIYSASYRYSGVPDRFTGSGSGTDFTLTITNVQSEDLAEYFCHQYNNFPFTFGSGTKLEIK
notes: second hybridoma campaign
B7: D7 (antibody, V domains shown)
VH: QVQLKESGPGLVAPSQSLSITCTVSGFSLTSYAISWVRQPPGKGLEWLGIIWTGGDTNYNSGLKSRLSITKDNSKSQVFLKMNSLQTDDTSRYYCARNSLFYGITPYYFDYWGQGTTLTVSS
VL: DIVLTQSPATLSVTPGDSVSLSCRASQSIRNDLHWYQQKSHESPRLLIKYASQSISGIPSRFSGSGSGTDFTLTINVLETEDFGMYFCQQSNGWPLTFGAGTKLELK
notes: second hybridoma campaign
B8: D4 (antibody, V domains shown)
VH: QVQLQQSGADLARPGASVKLSCKASGYTFTSYGIAWMKQRTGQGLEWIGEIYPRSGNPYYNDRFKGKATLTADRSSNTTYMELRSLTSEDSAVYFCARWVGGIIDYWGQGTSVTVSS
VL: DIVMTQSQKFMSTSIGDRVSVTCKASQNVGFNVAWYQQKPGQSPKPLIYSASYRYSGVPDRFTGSESGTEFTLIISNVQSEDLAEYFCQQYDSYPFTFGSGTNLEIK
notes: second hybridoma campaign
B9: D3 (antibody, V domains shown)
VH: QVQLQQPGADLVKPGASVKVSCKTSGYSFTSYWIHWVKQRPGQGLEWIGRVHPSDSDTDYSQKFKGKATLTVDDSSSTVYMQLTNLTSEDSAVYYCAIEWGYLFDYWGQGTTLSVSS
VL: DIVLTQSPISLAVSLGQRATISCWASQSVSTSSYSYVHWYQQKPGQPPKLLIKYASNLDSGVPARFSGSGSGTDFTLNIHPVDEEDTATYYCHHNWEIPYTFGGGTKLEIK
notes: second hybridoma campaign
B10: D6 (antibody, V domains shown)
VH: EVQLQQSGPELVKPGASVKMSCKASGYTFTDYYMDWVKQSHGESFEWIGRVNPYTGDSSYNQKFKGKATLTVDKSSNTAYLEFNSLTSEGSAVYYCARSDGYHYKYAMDYWGQGTSVTVSS
VL: DVVMTQTPLSLPVSLGDQASISCRSSQSLVHSTGNTYLHWYLQKPGQSPNLLIYKISNRFSGVPDRFSGSGSGTDFTLKISRVEAEDLGVYFCSQSTHVPYTFGGGTKLEIK
notes: second hybridoma campaign; same VH/VL as D8
B11: D8 (antibody, V domains shown)
VH: B10 VH
VL: B10 VL
notes: second hybridoma campaign; same VH/VL as D6

T3 sequence (Q2YFS2 29-224): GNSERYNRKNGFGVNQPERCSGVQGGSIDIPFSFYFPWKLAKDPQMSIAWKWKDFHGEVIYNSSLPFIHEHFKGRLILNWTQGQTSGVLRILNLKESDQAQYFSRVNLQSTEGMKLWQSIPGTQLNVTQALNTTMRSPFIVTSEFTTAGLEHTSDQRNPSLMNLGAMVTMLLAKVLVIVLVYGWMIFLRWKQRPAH
T4 sequence (Q9UKJ0 20-227): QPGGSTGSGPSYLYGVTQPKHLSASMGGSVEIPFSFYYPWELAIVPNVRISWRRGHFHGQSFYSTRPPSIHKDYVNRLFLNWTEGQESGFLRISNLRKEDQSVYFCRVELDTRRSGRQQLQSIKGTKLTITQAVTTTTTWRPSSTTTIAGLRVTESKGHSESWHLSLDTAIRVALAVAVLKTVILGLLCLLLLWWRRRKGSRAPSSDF

The target in the first test is T1, human PILRA, G78 variant, ectopically expressed on 293 cells (human, UniProt Q9UKJ1 20-303).
T1 construct: the cells are labelled G78; also called hA G78 OE; hA
T1 sequence (Q9UKJ1 other isoform, or with tags, fused parts or gaps mutant): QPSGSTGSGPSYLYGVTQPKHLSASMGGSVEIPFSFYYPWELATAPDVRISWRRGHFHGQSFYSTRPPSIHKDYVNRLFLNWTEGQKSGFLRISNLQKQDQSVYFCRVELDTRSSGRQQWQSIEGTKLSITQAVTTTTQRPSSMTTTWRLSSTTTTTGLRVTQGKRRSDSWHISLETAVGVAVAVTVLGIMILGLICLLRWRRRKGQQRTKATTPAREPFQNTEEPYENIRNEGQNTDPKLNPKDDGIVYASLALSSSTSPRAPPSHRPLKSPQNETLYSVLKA
The test can be described thus: flow cytometry; blocking of NPDC1-hIgG1 binding to 293 cells expressing human PILRA G78. In general terms: A flow cytometer gives signals particle by particle.
One may read the IC50 as the concentration at which inhibition is half-maximal. Read a high IC50 as weaker potency in that assay. As to B1, the IC50 stood at 0.6 mg/L.

B2 came in with an IC50 of 0.6 mg/L.

B3: the IC50 was 0.48 mg/L.

In turn, B4 returned an IC50 of 0.77 mg/L.

Molecule B5 showed an IC50 of 0.38 mg/L.

In another test the target is T2, human PILRA, c-term His-Avi tag (human, UniProt Q9UKJ1 20-197, limits assumed).
T2 construct: not shown: C-terminal His-Avi tag
T2 sequence (Q9UKJ1 20-197 limits assumed): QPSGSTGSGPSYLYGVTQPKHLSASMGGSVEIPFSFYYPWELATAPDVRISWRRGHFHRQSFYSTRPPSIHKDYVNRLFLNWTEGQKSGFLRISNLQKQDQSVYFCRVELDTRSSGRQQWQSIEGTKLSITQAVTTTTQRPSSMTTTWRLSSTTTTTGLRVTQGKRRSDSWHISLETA
Briefly: SPR (Biacore), antibody captured, PILRA as analyte. The protocol:
Experiments were performed to determine the kinetics of anti-PILRA antibody binding to human […]. The assay is depicted in FIG. 6. A rabbit anti-PILRA was used as a positive control, and H1 LALAPS was used as a negative control. Human PILRA (human PILRA, c-term His-Avi tag, 0.68 mg/mi) was used as the antigen. The running buffer was HBSTE/0.5% BSA, pH 7.4, and the regeneration solution was 10 mM glycine-HCl (pH 2.1). In the assay, antibodies were captured at 10 μg/ml by immobilized anti-huFc or anti-msFc on a Biacore CM5 chip, and human PILRA flowed at 33, 100, and 300 nM. The surface was regenerated after each analyte, and all curves were double-referenced with buffer injections.
A general note: Surface plasmon resonance follows binding to a sensor surface in real time, without labels.
In general, Kd refers to the equilibrium constant for the complex coming apart. A higher Kd goes with a looser complex. What is called koff is a measure of how fast the partners let go of each other. Higher therefore signals a short-lived complex. A word on the kon: it is the second-order rate constant of association. Lower therefore signals slower complex formation. Regarding B1, the Kd is 0.0513 µM, the koff is 0.0061 s⁻¹ and the kon is 120000 M⁻¹ s⁻¹.

The molecule B2 displayed a Kd of 0.15 µM, a koff of 0.011 s⁻¹ and a kon of 70000 M⁻¹ s⁻¹.

B3: the Kd stood at 0.0429 µM, the koff is 0.0054 s⁻¹ and the kon was determined as 130000 M⁻¹ s⁻¹.

The molecule B4 showed an equilibrium dissociation constant (Kd) of 0.0757 µM, a koff of 0.0064 s⁻¹ and a kon of 85000 M⁻¹ s⁻¹.

With B5, the affinity, expressed as Kd, was 0.047 µM; the koff was 0.0042 s⁻¹; the kon stood at 90000 M⁻¹ s⁻¹.

The target of a further test is cynomolgus PILRA, ectopically expressed on 293 cells (cynomolgus monkey). The test can be described thus: flow cytometry, 293 cells expressing target. The protocol: (§1) Briefly, conditioned media containing antibodies were incubated with 293 cells for 30 min at 4° C., washed twice, and then detected with anti-mouse IgG Alexa 647.
Chain of cynomolgus PILRA, ectopically expressed on 293 cells (cynomolgus monkey) (chain, as listed by the source): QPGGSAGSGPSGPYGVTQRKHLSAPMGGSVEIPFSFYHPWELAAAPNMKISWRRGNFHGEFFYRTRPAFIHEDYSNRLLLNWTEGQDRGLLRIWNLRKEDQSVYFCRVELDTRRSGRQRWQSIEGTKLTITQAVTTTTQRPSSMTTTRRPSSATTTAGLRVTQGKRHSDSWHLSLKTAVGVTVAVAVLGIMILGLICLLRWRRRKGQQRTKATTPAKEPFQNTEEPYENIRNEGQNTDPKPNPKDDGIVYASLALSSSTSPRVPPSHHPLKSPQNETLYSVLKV
Regarding B1, the binding result is recorded as “no binding”.

Take B6: the binding result was “no binding”.

The term EC50 denotes the concentration needed to bring the measured effect to its halfway point. Low values mean higher potency in that assay, high ones lower potency in that assay. As to B7, it took 1 mg/L to reach a half-maximal effect (EC50).

B2 returned an EC50 of 14.6 mg/L.

For the molecule B8, the binding result is “no binding”.

B3 showed an EC50 of 17.3 mg/L.

In turn, B4 gave an EC50 of 0.3 mg/L.

Consider B5, for which the EC50 came out at 0.2 mg/L.

On to B9, for which the binding result is recorded as “no binding”.

The molecule B10 came in with an EC50 of 0.05 mg/L.

B11 showed an EC50 of 0.1 mg/L.

For a further test, the target named is T1, human PILRA, G78 variant, ectopically …. The test can be described thus: flow cytometry, 293 cells expressing target. The method, then:
as §1
The molecule B1 displayed a concentration for a half-maximal effect (EC50) of 0.7 mg/L.

B6 showed an EC50 of 0.3 mg/L.

As to B7, a half-maximal response (EC50) required 0.3 mg/L.

On to B2, for which the EC50 worked out at 0.8 mg/L.

Take B8: the EC50 is 0.4 mg/L.

B3 registered an EC50 of 1.1 mg/L.

Take B4: the EC50 stood at 0.5 mg/L.

For B5, it took 0.2 mg/L to reach a half-maximal effect (EC50).

B9: the EC50 amounted to 0.2 mg/L.

B10 yielded an EC50 of 0.12 mg/L.

As to B11, the midpoint of the response, the EC50, lay at 0.1 mg/L.

A further test addresses T3, murine PILRB, ectopically expressed on 293 cells (murine, UniProt Q2YFS2 29-224).
T3 construct: whole, on cells; also called mB
Briefly: flow cytometry, 293 cells expressing target. The protocol:
as §1
Take B1: the binding result is listed as “no binding”.

On to B6, for which the binding result is “no binding”.

On to B7, for which the binding result was “no binding”.

On to B2, for which the binding result is reported as “no binding”.

Take B8: the binding result is reported as “no binding”.

B3: the binding result is “no binding”.

For B4, the binding result was “no binding”.

Take B5: the binding result is recorded as “no binding”.

Take B9: the binding result is given as “no binding”.

As to B10, the binding result is recorded as “no binding”.

For the molecule B11, the binding result was “no binding”.

Another test concerns the target T4, human PILRB, ectopically expressed on 293 cells (human, UniProt Q9UKJ0 20-227).
T4 construct: also called hB
The test can be described thus: flow cytometry, 293 cells expressing target. The method, then: as §1
In turn, B1 displayed an EC50 of 3.4 mg/L.

In the case of B6, the binding result is on record as “no binding”.

As to B7, the EC50 was 21.2 mg/L.

For the molecule B2, the binding result is listed as “no binding”.

In the case of B8, the binding result was “no binding”.

Consider B3, for which the binding result is “no binding”.

B4: the binding result is given as “no binding”.

Consider B5, for which the binding result was “no binding”.

For the molecule B9, the binding result is on record as “no binding”.

On to B10, for which the response was half-maximal at 0.47 mg/L (EC50).

In turn, B11 came in with an EC50 of 0.35 mg/L.

In the next test the target is T5, murine PILRA, ectopically expressed on 293 cells (murine, UniProt Q2YFS3 32-302).
T5 construct: also called mA
T5 sequence (Q2YFS3 32-302): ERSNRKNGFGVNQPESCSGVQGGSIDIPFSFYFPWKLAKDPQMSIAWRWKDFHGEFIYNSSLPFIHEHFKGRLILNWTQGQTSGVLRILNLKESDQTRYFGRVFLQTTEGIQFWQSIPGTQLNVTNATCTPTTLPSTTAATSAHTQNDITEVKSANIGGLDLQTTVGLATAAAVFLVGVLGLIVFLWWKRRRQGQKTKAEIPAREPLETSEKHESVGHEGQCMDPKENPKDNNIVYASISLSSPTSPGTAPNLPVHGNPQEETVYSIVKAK
Briefly: flow cytometry, 293 cells expressing target. The method, then: as §1
For B1, the binding result was “no binding”.

For the molecule B6, the binding result is recorded as “no binding”.

As to B7, the binding result is on record as “no binding”.

Consider B2, for which the binding result is on record as “no binding”.

With B8, the binding result is reported as “no binding”.

For the molecule B3, the binding result is “no binding”.

For the molecule B4, the binding result was “no binding”.

Take B5: the binding result is listed as “no binding”.

Consider B9, for which the binding result is reported as “no binding”.

Regarding B10, the binding result is recorded as “no binding”.

Turning to B11, the binding result is given as “no binding”.

For a further test, the target named is T6, PILRA Fc (soluble human PILRA) (human, UniProt Q9UKJ1 20-197, limits assumed).
T6 construct: also called soluble PILRA; not shown: Fc part, detected with anti-human IgG
T6 sequence (Q9UKJ1 20-197 limits assumed): as the sequence (Q9UKJ1 20-197 limits assumed) above
The test can be described thus: flow cytometry; blocking of PILRA Fc binding to human CD3+ T cells (Donor 1019). The method, then: The ability of conditioned media samples containing antibodies to inhibit the binding of PILRA Fc to human CD3+ T cells was assessed. Briefly, conditioned media samples containing antibodies were incubated with 1.25 ug/ml PILRA Fc for 30 min at 4° C. and then added to human T cells. After 30 minutes incubation at 4° C., cells were washed, and bound PILRA Fc was detected with anti-human IgG Alexa 647. Cells were analyzed by flow cytometry on FACS Canto II, and for all cell lines, the amount of PILRA Fc binding (MIFI) and the percentage of PILRA Fc binding in the presence of conditioned media relative to PILRA Fc binding alone was calculated. Several antibodies inhibited binding of PILRA Fc to human T cells, and a few antibodies enhanced PILRA-Fc binding to T cells. Antibodies that show enhancement in this assay may block cis inhibition to promote trans interactions or may allosterically activate to enhance trans interactions without blocking cis.
Molecule B6 yielded an IC50 of 1.6 mg/L.

Consider B7, for which the IC50 amounted to 5.75 mg/L.

In turn, B8 gave an IC50 of 3.77 mg/L.

In turn, B9 showed an IC50 of 2.9 mg/L.

The molecule B10 yielded an IC50 of 3.13 mg/L.

In turn, B11 showed an IC50 of 2 mg/L.
